Changes are numbered by the printed parent chain. In names and notes the source's numbering stands.
T1: TNFR1 (Homo sapiens, UniProt P19438)
T1 chain: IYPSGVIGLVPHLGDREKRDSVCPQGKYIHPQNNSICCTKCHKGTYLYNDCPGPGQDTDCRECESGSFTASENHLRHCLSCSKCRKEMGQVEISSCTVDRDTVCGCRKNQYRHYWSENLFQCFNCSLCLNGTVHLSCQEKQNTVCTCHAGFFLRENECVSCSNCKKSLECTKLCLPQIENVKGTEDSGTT

B1: K27N (designed binder)
chain: SMEEEVEKAAKEYEKKKKEAIEKHLENLKAKDKEAAERFLKELEEAAKEYAKDEAKTMSEEEAKRRAKKYKEKVLLSELSEEEQKEIKEAEEKLVRTILKYVEEAAK
B2: L94R (designed binder)
chain: B1 chain with N27K, L94R
B3: R66T (designed binder)
chain: B1 chain with N27K, R66T
B4: S59D (designed binder)
chain: B1 chain with N27K, S59D
B5: L28P (designed binder)
chain: B1 chain with N27K, L28P
B6: Y50M (designed binder)
chain: B1 chain with N27K, Y50M
B7: V6Y (designed binder)
chain: B1 chain with V6Y, N27K
B8: K16M (designed binder)
chain: B1 chain with K16M, N27K
B9: E19R (designed binder)
chain: B1 chain with E19R, N27K
B10: S80T (designed binder)
chain: B1 chain with N27K, S80T
B11: S59R (designed binder)
chain: B1 chain with N27K, S59R
B12: R96M (designed binder)
chain: B1 chain with N27K, R96M
B13: A55D (designed binder)
chain: B1 chain with N27K, A55D
B14: E22I (designed binder)
chain: B1 chain with E22I, N27K
B15: E78M (designed binder)
chain: B1 chain with N27K, E78M
B16: D32M (designed binder)
chain: B1 chain with N27K, D32M
B17: R66K (designed binder)
chain: B1 chain with N27K, R66K
B18: A67M (designed binder)
chain: B1 chain with N27K, A67M
B19: D53P (designed binder)
chain: B1 chain with N27K, D53P
B20: Q84N (designed binder)
chain: B1 chain with N27K, Q84N
B21: E3N (designed binder)
chain: B1 chain with E3N, N27K
B22: E54C (designed binder)
chain: B1 chain with N27K, E54C
B23: A63K (designed binder)
chain: B1 chain with N27K, A63K
B24: L79Y (designed binder)
chain: B1 chain with N27K, L79Y
B25: S1Y (designed binder)
chain: B1 chain with S1Y, N27K
B26: A30W (designed binder)
chain: B1 chain with N27K, A30W
B27: A105M (designed binder)
chain: B1 chain with N27K, A105M
B28: L76K (designed binder)
chain: B1 chain with N27K, L76K
B29: K27M (designed binder)
chain: B1 chain with N27M
B30: E91K (designed binder)
chain: B1 chain with N27K, E91K
B31: E49D (designed binder)
chain: B1 chain with N27K, E49D
B32: A55L (designed binder)
chain: B1 chain with N27K, A55L
B33: L79K (designed binder)
chain: B1 chain with N27K, L79K
B34: R38F (designed binder)
chain: B1 chain with N27K, R38F
B35: E92C (designed binder)
chain: B1 chain with N27K, E92C
B36: E78Q (designed binder)
chain: B1 chain with N27K, E78Q
B37: E12M (designed binder)
chain: B1 chain with E12M, N27K
B38: S77C (designed binder)
chain: B1 chain with N27K, S77C
B39: E5W (designed binder)
chain: B1 chain with E5W, N27K
B40: A106W (designed binder)
chain: B1 chain with N27K, A106W
B41: E92T (designed binder)
chain: B1 chain with N27K, E92T
B42: Y50S (designed binder)
chain: B1 chain with N27K, Y50S
B43: E83H (designed binder)
chain: B1 chain with N27K, E83H
B44: M2G (designed binder)
chain: B1 chain with M2G, N27K
B45: E42L (designed binder)
chain: B1 chain with N27K, E42L
B46: K23Y (designed binder)
chain: B1 chain with K23Y, N27K
B47: A35Y (designed binder)
chain: B1 chain with N27K, A35Y
B48: K100W (designed binder)
chain: B1 chain with N27K, K100W
B49: K107E (designed binder)
chain: B1 chain with N27K, K107E
B50: K68F (designed binder)
chain: B1 chain with N27K, K68F
B51: I87G (designed binder)
chain: B1 chain with N27K, I87G
B52: R66H (designed binder)
chain: B1 chain with N27K, R66H
B53: L25F (designed binder)
chain: B1 chain with L25F, N27K
B54: E89R (designed binder)
chain: B1 chain with N27K, E89R
B55: A30I (designed binder)
chain: B1 chain with N27K, A30I
B56: S1C (designed binder)
chain: B1 chain with S1C, N27K
B57: L43N (designed binder)
chain: B1 chain with N27K, L43N
B58: R38W (designed binder)
chain: B1 chain with N27K, R38W
B59: E12C (designed binder)
chain: B1 chain with E12C, N27K

Biological target: T1, TNFR1
Assay: yeast display SC50

apparent Kd (screen) | Binder
0.653 nM | B1
4.83 nM | B2
16.7 nM | B3
2.25 nM | B4
13.8 nM | B5
0.446 nM | B6
0.446 nM | B7
0.446 nM | B8
0.446 nM | B9
1.27 nM | B10
1.05 nM | B11
1.05 nM | B12
12.5 nM | B13
1.16 nM | B14
0.956 nM | B15
5.84 nM | B16
10.4 nM | B17
7.78 nM | B18
0.869 nM | B19
2.48 nM | B20

apparent Kd (screen) | Binder
2.73 nM | B21
11.4 nM | B22
8.56 nM | B23
12.5 nM | B24
3 nM | B25
0.593 nM | B26
3 nM | B27
3.3 nM | B28
1.05 nM | B29
11.4 nM | B30
4.39 nM | B31
0.593 nM | B32
0.304 nM | B33
1.05 nM | B34
6.43 nM | B35
0.718 nM | B36
0.539 nM | B37
1.54 nM | B38
0.539 nM | B39
0.368 nM | B40

apparent Kd (screen) | Binder
3.3 nM | B41
5.31 nM | B42
1.27 nM | B43
0.446 nM | B44
7.07 nM | B45
0.368 nM | B46
1.27 nM | B47
1.05 nM | B48
1.54 nM | B49
3 nM | B50
13.8 nM | B51
24.4 nM | B52
0.49 nM | B53
2.73 nM | B54
0.653 nM | B55
15.2 nM | B56
0.446 nM | B57
0.446 nM | B58
0.956 nM | B59
